Measurements taken from patent EP2958933B1, “CROSSLINKED PEPTIDE HYDROGELS” (Agency for Science, Technology and Research, priority 2013, dated 2018).
Peptide text beside a SMILES is read from it.

Key:
[1] = Oscillation rheology of casted crosslinkable gels (frequency and amplitude sweep); type: physicochemical; conditions: for stiffness after water soak: without oxidation; for gel stiffness on LK6-doping: final concentration 12 mM, cast-and-soak 0.06% H2O2 two hours
Description: Peptide was dissolved in 200 µL of water +/- H2O2 and filled into custom-made hollow ring casts (diameter ∼1 cm). The ring ends were sealed with parafilm to minimise evaporation and the cast was kept at 25°C for 22 hours before further manipulations.
(§1) Rheology: The rheological properties of casted gels were measured with an ARES-G2 (TA Instruments, USA) using the oscillation method. Frequency-sweep studies were performed with ω=0-100 rad/s at strain, γ=0.1%. The gel stiffness was represented by plotting G' against ω. Amplitude-sweep studies were performed beforehand at 1 Hz with γ=0-100%. The LVE limit of the gel was defined as the value of γ when G' first dropped below 90% of the average initial value.
as §1, with “The” for “Rheology: The”

[2] = test system: skins of guinea pigs; test: Direct contact Kligman maximization test (GLP, ISO 10993-10); type: in vivo
[3] = test system: V79; test: Direct contact V79 colony assay (GLP); type: cell-based
[4] = test system: HepG2 cells; test: 3D cell culture on gels, calcein live-cell staining; type: cell-based; conditions: purified gels conjugated with different concentrations of RGD, after four days
Description: LK6C +/- CRGD gels were casted directly into 8-chamber Lab-Tek® wells (Nunc, NY, USA) and purified as reported in the SI. 0.5 mL of cell suspension in regular completed DMEM (Invitrogen, Singapore) was either seeded onto the gel or directly into the well (2D control) and incubated for four days. 0.5 µL of calcein-AM (Invitrogen) was then added to the media to identify live cells and images were captured using a confocal microscope (LSM5 DUO, Carl Zeiss, Germany). Beforehand, calcein-AM was verified to stain only live cells as ethanol- and H2O2-treated cells excluded the dye. All images, except for the 2D controls, were presented as mergers of several z-stacks. To further verify the 3D distribution of cells, the gel was embedded vertically in Jung Tissue Freezing Medium (Leica Instruments GmbH, Germany) and 20 µm cross-sectional slices were obtained with a cryostat (CM3050 S, Leica). Sections were mounted with coverslips and imaged as above.
To test for biocompatibility, HepG2 cells were either seeded directly into wells (2D control) or onto purified LK6C gels conjugated with different concentrations of RGD. […] This was repeated with primary rabbit fibroblasts (Figure 35), 3T3 murine fibroblasts (Figure 38) and NIH-3T3 murine fibroblasts (data not shown), confirming the biocompatibility of the gels. With regular media changes, cells remained viable for at least 3 weeks (Figure 38). […]

[5] = test system: Fibroblasts isolated from the cornea/sclera of New Zealand White rabbits; test: 3D primary cell culture on gels, calcein live-cell staining; type: cell-based; conditions: purified gels +/- various concentrations of CRGD, four days
From the text: (§2) Reference is now made to the figures, wherein: • Figures 1A to 1M represent a sorted list of some exemplary peptides capable of forming hydrogels. These peptides are examples in which the entire peptide consists of a single linear amphiphilic sequence. Peptides which are forming hydrogels are named with a short code, but their individual sequence is disclosed. The peptides of these examples consist of a sequence of natural amino acids containing 3 to 7 amino acids. […] (a, b) The high mechanical strengths of different peptide hydrogels at 20 mg/mL concentration was determined by measuring storage moduli (G') as a function of angular frequency under 0.1% strain, at 25°C and 50°C respectively. […] (c) Mechanical strength is a function of concentration, as determined from oscillatory frequency sweep studies using Ac-LD6 (Ac-LIVAGD) (L) under 0.1% strain at 25°C. […] LK6 gels were therefore casted at different concentrations and their stiffness was measured (average ± s.d. of triplicates). As expected, G' values increased with peptide concentration and it was determined that a working concentration of 12 mM afforded gels with sufficient mechanical integrity to withstand handling. […]

[6] = test system: HepG2 cells; test: Quantification of cell-spread area (ImageJ); type: cell-based; conditions: gel culture in the presence or absence of RGD
From the text: Confocal images after calcein staining were processed using ImageJ (NIH, USA) to obtain the average cell-spread area under various culture conditions. For cells in 3D gel culture, images used for quantification were mergers of several z-stacks to capture the maximum cell-spread area. In all cases, at least three independent experiments with at least two locations selected from each culture were used for averaging.

[7] = test system: Fibroblasts isolated from the cornea/sclera of New Zealand White rabbits; test: Quantification of cell-spread area (ImageJ); type: cell-based; conditions: various gel cultures, ANOVA p<0.05
From the text: as §2

[8] = Determination of a suitable gelation concentration; type: physicochemical; conditions: for working concentration at which gels are formed: gels with sufficient mechanical integrity to withstand handling / gel formation
From the text: Reference is now made to the figures, wherein: • Figures 1A to 1M represent a sorted list of some exemplary peptides capable of forming hydrogels. These peptides are examples in which the entire peptide consists of a single linear amphiphilic sequence. Peptides which are forming hydrogels are named with a short code, but their individual sequence is disclosed. The peptides of these examples consist of a sequence of natural amino acids containing 3 to 7 amino acids. The N-terminus is acetylated which removes the charge that would otherwise restrain the amphiphilic character of the peptides. • Figure 2 depicts gelation pictures for peptide based hydrogels at lowest concentrations. • Figure 3 depicts gelation pictures for Ac-AS-6 (Ac-AIVAGS) (L) at concentrations of 5 mg/ml, 10 mg/ml, 15 mg/ml. • Figure 4 depicts a hypothesis of self-assembly from peptide monomers to supramolecular network of condensed fibers. (A) Assembly is believed to initiate with antiparallel pairing of two peptide monomers by changing to α-helical conformations. Subsequently, peptide pairs assemble to fibers and nanostructures. Condensation of peptide fibers to fiber aggregates results in hydrogel formation. • Figure 5 depicts environmental scanning electron microscopy (ESEM) images of hydrogels of Ac-LD6 (Ac-LIVAGD) (L) (10 mg/ml), where Fig. 5A, Fig. 5B and Fig. 5C are images obtained at magnification of 260X, 1000X, 2000X, 2400X, 4000X at a temperature of 4 °C with HV at 10KV. […] 8A), and 450 X (fig. […] (a) A honeycomb porous structure is observed following lyophilization of 20 mg/mL Ac-AD6 (Ac-AIVAGD) (D) hydrogel. The pores are bounded by membranes of condensed fibers as shown in close-up views of 15 mg/mL (b) and 20 mg/mL (c) Ac-ID3 (Ac-IVD) (L) hydrogels. […] Heating the samples to facilitate gelation increased the β type aggregation. […] (e) Far-UV CD spectra of AcID3 (Ac-IVD) at different concentrations. […] (a, b) The high mechanical strengths of different peptide hydrogels at 20 mg/mL concentration was determined by measuring storage moduli (G') as a function of angular frequency under 0.1% strain, at 25°C and 50°C respectively. […] (c) Mechanical strength is a function of concentration, as determined from oscillatory frequency sweep studies using Ac-LD6 (Ac-LIVAGD) (L) under 0.1% strain at 25°C. […] LK6 gels were therefore casted at different concentrations and their stiffness was measured (average ± s.d. of triplicates). As expected, G' values increased with peptide concentration and it was determined that a working concentration of 12 mM afforded gels with sufficient mechanical integrity to withstand handling. […]

[9] = Concentration dependence of self-assembly (aggregates, fibers); type: physicochemical
From the text: An amphiphilic linear sequence of an amphiphilic peptide and/or peptoid disclosed herein, including an amphiphilic linear peptide and/or peptoid, is capable of providing a self assembling α-helical fiber in aqueous solution under physiological conditions. The peptides/peptoids (typically 3-7-mers) in the L- or D-form can self assemble into supramolecular helical fibers which are organized into mesh-like structures mimicking biological substances such as collagen. It has previously been observed in X-ray crystallography that peptides of a length of 3 to 6 amino acids with repetitive alanine containing sequences and an acetylated […] take a helical conformation (Hatakeyama, Y, et al, Angew. Chem. Int. Ed. (2009) 8695-8698). Using peptides with an amphiphilic sequence disclosed herein, Ac-LD6 (L), the formation of aggregates has for example been observed already at 0.1 mg/ml. […] With a formation of fibers occurring under physiological conditions at concentrations below 2 mM a peptide/peptoid disclosed herein is well suited as an injectable hydrogel material that can form a hydrogel under physiological conditions. Also disclosed herein is an amphiphilic linear peptide and/or peptoid as defined above for tissue engineering as well as to a tissue engineering method that involves applying, including injecting a respective amphiphilic linear peptide and/or peptoid.

[10] = Water soak of casted gels (resistance to degradation, shape retention); type: physicochemical; conditions: non-oxidised gels, 24 hours of water soak

Row | Compound | shape and stiffness after water soak ([1]; 12 mM gel, 2 or 24 hours cast-and-soak or 22 hours in situ oxidation with 0.06% H2O2, up to four days of water soak) | stiffness after water soak ([1]; 12 mM gel, 24 hours of water soak) | stiffness after water soak ([1]; 12 mM gel, two hours of water soak) | stiffness (G') following oxidation ([1]; compared to non-oxidised gels, different oxidation regimes) | gel stiffness on LK6-doping [1] | linear viscoelastic (LVE) limit (elasticity), increase following oxidation ([1]; oxidised vs non-oxidised gels, cast-and-soak 2-24 hours 0.06% H2O2 or in situ 24 hours 0.03-0.1% H2O2) | sensitization [2] | toxicity [3] | cell viability (calcein staining) [4] | cell viability (calcein staining) [5] | cell spreading vs regular 2D culture [6] | cell-spread area vs 2D culture [7] | material needed for gelation [8] [mg/mL] | working concentration at which gels are formed [8] [mM] | concentration at which formation of aggregates is observed [9] [µg/mL] | concentration at which peptide monomers align to form fibrous structures [9] [µg/mL] | gel degradation after water soak [10]
1 | LIVAGKC [LK6C, cross-linkable peptide, LK6 modified with a cysteine residue at the C-terminus; forms hydrogels] | maintained their shapes and in fact, became stiffer | broke down and lost their stiffness | could maintain their stiffness | either maintained or increased | relatively stiff | 2.4-3.8 fold | no sensitization | no significant toxicity | viable | viable fibroblasts were seen in all cases | insignificant effects (p>0.05) | spreaded more in 2D culture compared to those in the various gel cultures | 10 | 12 |  |  | 
2 | CC[C@H](C)[C@H](NC(=O)[C@H](CC(C)C)NC(C)=O)C(=O)N[C@H](C(=O)N[C@@H](C)C(=O)NCC(=O)N[C@@H](CC(=O)O)C(=O)O)C(C)C [Ac-LD6 (L), Ac-LIVAGD-COOH] (Ac-LIVAGD-OH) |  |  |  |  |  |  |  |  |  |  |  |  |  |  | 100 | 1000 | 
3 | LIVAGK [LK6] |  |  |  |  | relatively stiff |  |  |  |  |  |  |  | 25 | 12 |  |  | completely degraded
